From paper PMC6994090

Target: alpha-thrombin (human, UniProt P00734;P00734 328-363;364-622)
Assay: SPR

| Binder | Kd |
| --- | --- |
| CCUUUGGUUCGGAUAAUUAUUAAGUAUUGUCUUCAUUCA (structured_RNA, RNA (U for T); 2'-F C and U, 2'-OH A and G) [Tbn#3] | 1.4 nM |
| UGAGGUGUUUGGGGUACUACUGGUAAAGGAUUUUCAUCUA (structured_RNA, RNA (U for T); 2'-F C and U, 2'-OH A and G) [Tbn#6] | 1.7 nM |
